The values below come from patent US20210238260.

By kcat/KM is commonly meant the turnover number divided by the Michaelis constant. What is called KM is the concentration of substrate that gives half-maximal velocity.

To fix the notation:
B1: FIXa R318Y/R338E/T343R/R403E (protein)
chain 1: YNSGKLEEFVQGNLERECMEEKCSFEEAREVFENTERTTEFWKQYVDGDQCESNPCLNGGSCKDDINSYECWCPFGFEGKNCELDVTCNIKNGRCEQFCKNSADNKVVCSCTEGYRLAENQKSCEPAVPFPCGRVSVSQTSKLTR
chain 2: VVGGEDAKPGQFPWQVVLNGKVDAFCGGSIVNEKWIVTAAHCVETGVKITVVAGEHNIEETEHTEQKRNVIRIIPHHNYNAAINKYNHDIALLELDEPLVLNSYVTPICIADKEYTNIFLKFGSGYVSGWGRVFHKGYSALVLQYLRVPLVDRATCLESTKFRIYNNMFCAGFHEGGRDSCQGDSGGPHVTEVEGTSFLTGIISWGEECAMKGKYGIYTKVSEYVNWIKEKTKLT
B2: FIXa-R318Y/R338E/E410N (mature FIX numbering) (protein)
chain 1: YNSGKLEEFVQGNLERECMEEKCSFEEAREVFENTERTTEFWKQYVDGDQCESNPCLNGGSCKDDINSYECWCPFGFEGKNCELDVTCNIKNGRCEQFCKNSADNKVVCSCTEGYRLAENQKSCEPAVPFPCGRVSVSQTSKLTR
chain 2: VVGGEDAKPGQFPWQVVLNGKVDAFCGGSIVNEKWIVTAAHCVETGVKITVVAGEHNIEETEHTEQKRNVIRIIPHHNYNAAINKYNHDIALLELDEPLVLNSYVTPICIADKEYTNIFLKFGSGYVSGWGRVFHKGYSALVLQYLRVPLVDRATCLESTKFTIYNNMFCAGFHEGGRDSCQGDSGGPHVTEVEGTSFLTGIISWGEECAMKGKYGIYTKVSRYVNWIKNKTKLT
B3: FIXa-K228N/R338E/R403E (mature FIX numbering) (protein)
chain 1: YNSGKLEEFVQGNLERECMEEKCSFEEAREVFENTERTTEFWKQYVDGDQCESNPCLNGGSCKDDINSYECWCPFGFEGKNCELDVTCNIKNGRCEQFCKNSADNKVVCSCTEGYRLAENQKSCEPAVPFPCGRVSVSQTSKLTR
chain 2: VVGGEDAKPGQFPWQVVLNGKVDAFCGGSIVNEKWIVTAAHCVETGVNITVVAGEHNIEETEHTEQKRNVIRIIPHHNYNAAINKYNHDIALLELDEPLVLNSYVTPICIADKEYTNIFLKFGSGYVSGWGRVFHKGRSALVLQYLRVPLVDRATCLESTKFTIYNNMFCAGFHEGGRDSCQGDSGGPHVTEVEGTSFLTGIISWGEECAMKGKYGIYTKVSEYVNWIKEKTKLT
B4: FIXa R338E/T343R/R403E/E410N (protein)
chain 1: YNSGKLEEFVQGNLERECMEEKCSFEEAREVFENTERTTEFWKQYVDGDQCESNPCLNGGSCKDDINSYECWCPFGFEGKNCELDVTCNIKNGRCEQFCKNSADNKVVCSCTEGYRLAENQKSCEPAVPFPCGRVSVSQTSKLTR
chain 2: VVGGEDAKPGQFPWQVVLNGKVDAFCGGSIVNEKWIVTAAHCVETGVKITVVAGEHNIEETEHTEQKRNVIRIIPHHNYNAAINKYNHDIALLELDEPLVLNSYVTPICIADKEYTNIFLKFGSGYVSGWGRVFHKGRSALVLQYLRVPLVDRATCLESTKFRIYNNMFCAGFHEGGRDSCQGDSGGPHVTEVEGTSFLTGIISWGEECAMKGKYGIYTKVSEYVNWIKNKTKLT
B5: FIXa-D104N/K106S/R318Y/R338E/E410N (mature FIX numbering) (protein)
chain 1: YNSGKLEEFVQGNLERECMEEKCSFEEAREVFENTERTTEFWKQYVDGDQCESNPCLNGGSCKDDINSYECWCPFGFEGKNCELDVTCNIKNGRCEQFCKNSANNSVVCSCTEGYRLAENQKSCEPAVPFPCGRVSVSQTSKLTR
chain 2: VVGGEDAKPGQFPWQVVLNGKVDAFCGGSIVNEKWIVTAAHCVETGVKITVVAGEHNIEETEHTEQKRNVIRIIPHHNYNAAINKYNHDIALLELDEPLVLNSYVTPICIADKEYTNIFLKFGSGYVSGWGRVFHKGYSALVLQYLRVPLVDRATCLESTKFTIYNNMFCAGFHEGGRDSCQGDSGGPHVTEVEGTSFLTGIISWGEECAMKGKYGIYTKVSRYVNWIKNKTKLT
B6: FIXa-K228N/R318Y/E410N (mature FIX numbering) (protein)
chain 1: YNSGKLEEFVQGNLERECMEEKCSFEEAREVFENTERTTEFWKQYVDGDQCESNPCLNGGSCKDDINSYECWCPFGFEGKNCELDVTCNIKNGRCEQFCKNSADNKVVCSCTEGYRLAENQKSCEPAVPFPCGRVSVSQTSKLTR
chain 2: VVGGEDAKPGQFPWQVVLNGKVDAFCGGSIVNEKWIVTAAHCVETGVNITVVAGEHNIEETEHTEQKRNVIRIIPHHNYNAAINKYNHDIALLELDEPLVLNSYVTPICIADKEYTNIFLKFGSGYVSGWGRVFHKGYSALVLQYLRVPLVDRATCLRSTKFTIYNNMFCAGFHEGGRDSCQGDSGGPHVTEVEGTSFLTGIISWGEECAMKGKYGIYTKVSRYVNWIKNKTKLT
B7: FIXa-Y155F/R318Y/R338E/E410N (mature FIX numbering) (protein)
chain 1: YNSGKLEEFVQGNLERECMEEKCSFEEAREVFENTERTTEFWKQYVDGDQCESNPCLNGGSCKDDINSYECWCPFGFEGKNCELDVTCNIKNGRCEQFCKNSADNKVVCSCTEGYRLAENQKSCEPAVPFPCGRVSVSQTSKLTR
chain 2: VVGGEDAKPGQFPWQVVLNGKVDAFCGGSIVNEKWIVTAAHCVETGVKITVVAGEHNIEETEHTEQKRNVIRIIPHHNYNAAINKYNHDIALLELDEPLVLNSYVTPICIADKEYTNIFLKFGSGYVSGWGRVFHKGYSALVLQYLRVPLVDRATCLESTKFTIYNNMFCAGFHEGGRDSCQGDSGGPHVTEVEGTSFLTGIISWGEECAMKGKYGIYTKVSRYVNWIKNKTKLT
B8: FIXa Y155F/R318Y/R338E/T343R/E410N (protein)
chain 1: YNSGKLEEFVQGNLERECMEEKCSFEEAREVFENTERTTEFWKQYVDGDQCESNPCLNGGSCKDDINSYECWCPFGFEGKNCELDVTCNIKNGRCEQFCKNSADNKVVCSCTEGYRLAENQKSCEPAVPFPCGRVSVSQTSKLTR
chain 2: VVGGEDAKPGQFPWQVVLNGKVDAFCGGSIVNEKWIVTAAHCVETGVKITVVAGEHNIEETEHTEQKRNVIRIIPHHNYNAAINKYNHDIALLELDEPLVLNSYVTPICIADKEYTNIFLKFGSGYVSGWGRVFHKGYSALVLQYLRVPLVDRATCLESTKFRIYNNMFCAGFHEGGRDSCQGDSGGPHVTEVEGTSFLTGIISWGEECAMKGKYGIYTKVSRYVNWIKNKTKLT
B9: FIXa-R318Y/R403E/E410N (mature FIX numbering) (protein)
chain 1: YNSGKLEEFVQGNLERECMEEKCSFEEAREVFENTERTTEFWKQYVDGDQCESNPCLNGGSCKDDINSYECWCPFGFEGKNCELDVTCNIKNGRCEQFCKNSADNKVVCSCTEGYRLAENQKSCEPAVPFPCGRVSVSQTSKLTR
chain 2: VVGGEDAKPGQFPWQVVLNGKVDAFCGGSIVNEKWIVTAAHCVETGVKITVVAGEHNIEETEHTEQKRNVIRIIPHHNYNAAINKYNHDIALLELDEPLVLNSYVTPICIADKEYTNIFLKFGSGYVSGWGRVFHKGYSALVLQYLRVPLVDRATCLRSTKFTIYNNMFCAGFHEGGRDSCQGDSGGPHVTEVEGTSFLTGIISWGEECAMKGKYGIYTKVSEYVNWIKNKTKLT
B10: FIXa R318Y/R338E/T343R/E410N (protein)
chain 1: YNSGKLEEFVQGNLERECMEEKCSFEEAREVFENTERTTEFWKQYVDGDQCESNPCLNGGSCKDDINSYECWCPFGFEGKNCELDVTCNIKNGRCEQFCKNSADNKVVCSCTEGYRLAENQKSCEPAVPFPCGRVSVSQTSKLTR
chain 2: VVGGEDAKPGQFPWQVVLNGKVDAFCGGSIVNEKWIVTAAHCVETGVKITVVAGEHNIEETEHTEQKRNVIRIIPHHNYNAAINKYNHDIALLELDEPLVLNSYVTPICIADKEYTNIFLKFGSGYVSGWGRVFHKGYSALVLQYLRVPLVDRATCLESTKFRIYNNMFCAGFHEGGRDSCQGDSGGPHVTEVEGTSFLTGIISWGEECAMKGKYGIYTKVSRYVNWIKNKTKLT
B11: FIXa-R318Y/R338E/R403E/E410N (mature FIX numbering) (protein)
chain 1: YNSGKLEEFVQGNLERECMEEKCSFEEAREVFENTERTTEFWKQYVDGDQCESNPCLNGGSCKDDINSYECWCPFGFEGKNCELDVTCNIKNGRCEQFCKNSADNKVVCSCTEGYRLAENQKSCEPAVPFPCGRVSVSQTSKLTR
chain 2: VVGGEDAKPGQFPWQVVLNGKVDAFCGGSIVNEKWIVTAAHCVETGVKITVVAGEHNIEETEHTEQKRNVIRIIPHHNYNAAINKYNHDIALLELDEPLVLNSYVTPICIADKEYTNIFLKFGSGYVSGWGRVFHKGYSALVLQYLRVPLVDRATCLESTKFTIYNNMFCAGFHEGGRDSCQGDSGGPHVTEVEGTSFLTGIISWGEECAMKGKYGIYTKVSEYVNWIKNKTKLT
B12: FIXa-R338E/T343R/E410N (protein)
chain 1: YNSGKLEEFVQGNLERECMEEKCSFEEAREVFENTERTTEFWKQYVDGDQCESNPCLNGGSCKDDINSYECWCPFGFEGKNCELDVTCNIKNGRCEQFCKNSADNKVVCSCTEGYRLAENQKSCEPAVPFPCGRVSVSQTSKLTR
chain 2: VVGGEDAKPGQFPWQVVLNGKVDAFCGGSIVNEKWIVTAAHCVETGVKITVVAGEHNIEETEHTEQKRNVIRIIPHHNYNAAINKYNHDIALLELDEPLVLNSYVTPICIADKEYTNIFLKFGSGYVSGWGRVFHKGRSALVLQYLRVPLVDRATCLESTKFRIYNNMFCAGFHEGGRDSCQGDSGGPHVTEVEGTSFLTGIISWGEECAMKGKYGIYTKVSRYVNWIKNKTKLT
B13: FIXa Y155F/R318Y/T343R/R403E/E410N (protein)
chain 1: YNSGKLEEFVQGNLERECMEEKCSFEEAREVFENTERTTEFWKQYVDGDQCESNPCLNGGSCKDDINSYECWCPFGFEGKNCELDVTCNIKNGRCEQFCKNSADNKVVCSCTEGYRLAENQKSCEPAVPFPCGRVSVSQTSKLTR
chain 2: VVGGEDAKPGQFPWQVVLNGKVDAFCGGSIVNEKWIVTAAHCVETGVKITVVAGEHNIEETEHTEQKRNVIRIIPHHNYNAAINKYNHDIALLELDEPLVLNSYVTPICIADKEYTNIFLKFGSGYVSGWGRVFHKGYSALVLQYLRVPLVDRATCLRSTKFRIYNNMFCAGFHEGGRDSCQGDSGGPHVTEVEGTSFLTGIISWGEECAMKGKYGIYTKVSEYVNWIKNKTKLT
B14: FIXa Y155F/R318Y/R338E/T343R/R403E (protein)
chain 1: YNSGKLEEFVQGNLERECMEEKCSFEEAREVFENTERTTEFWKQYVDGDQCESNPCLNGGSCKDDINSYECWCPFGFEGKNCELDVTCNIKNGRCEQFCKNSADNKVVCSCTEGYRLAENQKSCEPAVPFPCGRVSVSQTSKLTR
chain 2: VVGGEDAKPGQFPWQVVLNGKVDAFCGGSIVNEKWIVTAAHCVETGVKITVVAGEHNIEETEHTEQKRNVIRIIPHHNYNAAINKYNHDIALLELDEPLVLNSYVTPICIADKEYTNIFLKFGSGYVSGWGRVFHKGYSALVLQYLRVPLVDRATCLESTKFRIYNNMFCAGFHEGGRDSCQGDSGGPHVTEVEGTSFLTGIISWGEECAMKGKYGIYTKVSEYVNWIKEKTKLT

The data set deals with Factor X, P00742.
Chain of Factor X, P00742 (P00742 whole entry, looked up): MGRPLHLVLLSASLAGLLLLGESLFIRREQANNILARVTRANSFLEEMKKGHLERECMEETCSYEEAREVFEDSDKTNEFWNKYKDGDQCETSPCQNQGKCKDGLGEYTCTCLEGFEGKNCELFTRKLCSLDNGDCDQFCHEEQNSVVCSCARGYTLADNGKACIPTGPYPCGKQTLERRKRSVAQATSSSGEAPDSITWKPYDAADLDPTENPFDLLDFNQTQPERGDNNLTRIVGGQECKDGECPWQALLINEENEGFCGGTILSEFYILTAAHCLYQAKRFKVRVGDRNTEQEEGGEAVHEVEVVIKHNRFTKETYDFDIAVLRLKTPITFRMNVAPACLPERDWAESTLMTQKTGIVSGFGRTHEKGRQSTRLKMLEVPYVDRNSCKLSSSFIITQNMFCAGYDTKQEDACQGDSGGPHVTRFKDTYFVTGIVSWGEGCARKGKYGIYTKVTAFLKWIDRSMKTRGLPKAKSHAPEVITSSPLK
For the protein B1, the KM (FX activation by FIXa in Xase complex with FVIIIa, PC/PS vesicles, Ca2+) was 0.0443 µM.
For B2, the “% of WT kcat/KM” value is listed as 770% and the kcat/KM worked out at 3.4e+08 M⁻¹ s⁻¹.
As to B3, the “% of WT kcat/KM” value was 108% and the kcat/KM came to 4.8e+07 M⁻¹ s⁻¹.
In the case of B4, the KM (FX activation by FIXa in Xase complex with FVIIIa, PC/PS vesicles, Ca2+) was 0.0347 µM.
For the protein B5, the “% of WT kcat/KM” value is 581% and the kcat/KM stood at 2.6e+08 M⁻¹ s⁻¹.
On the same counts, the results for B6 are 272% and 1.2e+08 M⁻¹ s⁻¹.
In the same order, the values of B7 are 835% and 3.7e+08 M⁻¹ s⁻¹.
Take B8: the KM (FX activation by FIXa in Xase complex with FVIIIa, PC/PS vesicles, Ca2+) was 0.0256 µM.
Consider B9, for which the “% of WT kcat/KM” value is 59% and the kcat/KM came to 2.7e+07 M⁻¹ s⁻¹.
For the protein B10, the KM (FX activation by FIXa in Xase complex with FVIIIa, PC/PS vesicles, Ca2+) stood at 0.0164 µM.
Take B11: the “% of WT kcat/KM” value came to 262% and the kcat/KM was determined as 1.2e+08 M⁻¹ s⁻¹.
Take B12: the KM is 0.0355 µM.
Take B13: the KM (FX activation by FIXa in Xase complex with FVIIIa, PC/PS vesicles, Ca2+) worked out at 0.034 µM.
The same measure, in the same setting: next, B14: 0.034 µM.
